T1: FcγRIIb (human, UniProt P31994 43-217)
T1 construct: extracellular domain; also called FcgRIIb; 2b
T1 sequence (looked up): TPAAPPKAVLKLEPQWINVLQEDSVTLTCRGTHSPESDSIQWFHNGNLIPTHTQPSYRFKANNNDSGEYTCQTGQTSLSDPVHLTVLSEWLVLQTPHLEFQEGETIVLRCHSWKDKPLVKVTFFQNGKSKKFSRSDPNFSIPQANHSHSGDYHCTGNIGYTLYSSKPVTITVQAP

T2: FcγRIIb (human, UniProt P31994 43-217)
T2 construct: extracellular domain; also called 2b
T2 sequence (looked up): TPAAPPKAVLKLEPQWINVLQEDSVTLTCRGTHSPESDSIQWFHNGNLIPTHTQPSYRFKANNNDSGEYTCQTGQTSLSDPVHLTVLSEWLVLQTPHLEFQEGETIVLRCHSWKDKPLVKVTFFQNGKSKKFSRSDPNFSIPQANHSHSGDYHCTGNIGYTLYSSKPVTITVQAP

T3: FcγRIIa H (human, UniProt P12318 34-217)
T3 construct: extracellular domain; also called FcγRIIa type H; 2aH
T3 sequence (looked up): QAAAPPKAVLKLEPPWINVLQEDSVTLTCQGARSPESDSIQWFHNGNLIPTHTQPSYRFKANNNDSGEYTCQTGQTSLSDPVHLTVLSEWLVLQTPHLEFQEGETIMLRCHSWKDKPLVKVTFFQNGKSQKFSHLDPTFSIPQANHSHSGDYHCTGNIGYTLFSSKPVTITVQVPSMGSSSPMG


Legend:
FcγRIIb [1] = target: T1, FcγRIIb; experiment: SPR, captured antibody; relative to GpH7-A5/GpH7-B3/GpL16-k0
FcγRIa = target: T4, FcγRIa (human, UniProt P12314 16-292); experiment: as above
T4 construct: extracellular domain; also called FcgRI; 1a

FcγRIIb [2] = target: T2, FcγRIIb; experiment: SPR (Biacore), relative binding vs GpH7-A5/GpH7-B3/GpL16-k0
Protocol: (§1) The heterodimerized antibodies He Abs in which one of the H chains was introduced with an alteration were assayed for their binding activities to each activating FcγR and inhibitory FcγR according to the method described in Example 4. […] The activating FcγRs in FIGS. 26, 27, 28, and 29 are FcγRIa, FcγRIIa (R), FcγRIIa (H), and FcγRIIIa, respectively.
(§2) Analysis of interaction between objective antibody and the FcγR was carried out using Biacore T100 (GE Healthcare). HBS-EP+ (GE Healthcare) was used as the running buffer, and the measurement temperature was set to 25° C. Chips produced by immobilizing the antigen peptide by the amine coupling method to a Series S Sencor Chip CM5 (GE Healthcare), or alternatively, chips produced by allowing preliminarily biotinylated antigen peptides to interact with and immobilize onto a Series S Sensor Chip SA (certified) (GE Healthcare) were used. Antibodies of interest were captured onto an antigen peptide-immobilized chip, and allowed to interact to each FcγR diluted with running buffer. To regenerate and repeatedly use the chip, the antibodies captured on the chip were washed off by reacting 10 mM glycine-HCl, pH 1.5.

FcγRIIa H = target: T3, FcγRIIa H; experiment: as above
Protocol: as §1, §2

T4 sequence (P12314 16-292): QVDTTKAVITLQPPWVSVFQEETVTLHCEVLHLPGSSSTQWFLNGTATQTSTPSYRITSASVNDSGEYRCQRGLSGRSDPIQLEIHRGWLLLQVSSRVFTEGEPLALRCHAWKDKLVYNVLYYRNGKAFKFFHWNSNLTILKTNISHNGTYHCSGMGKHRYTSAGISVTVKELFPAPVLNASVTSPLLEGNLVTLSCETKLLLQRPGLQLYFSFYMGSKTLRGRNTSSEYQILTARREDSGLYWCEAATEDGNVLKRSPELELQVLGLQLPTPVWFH

| Binder | He/Con_2b (FcγRIIb [1]) | He/Con_1a (FcγRIa) | He/Con_2b (FcγRIIb [2]) | He/Con_2aH (FcγRIIa H) |
| --- | --- | --- | --- | --- |
| GpH7-A5/GpH7-B3 variant (D265_10E)/GpL16-k0 (antibody, human IgG1, kappa, IgG1 heterodimer, mutation in the GpH7-B3 chain only; also called He Ab) heavy 1: not shown heavy 2: not shown light: DIVMTQSPLSLPVTPGEPASISCQASESLVHSNRNTYLHWYLQKPGQSPQLLIYKVSNRFSGVPDRFSGSGSGTDFTLKISRVEAEDVGVYYCSQNTHVPPTFGQGTKVEIERTVAAPSVFIFPPSDEQLKSGTASVVCLLNNFYPREAKVQWKVDNALQSGNSQESVTEQDSKDSTYSLSSTLTLSKADYEKHKVYACEVTHQGLSSPVTKSFNRGEC | 38.2 relative, HeCon Ab = 100 | 101 relative, HeCon Ab = 100 |  |  |
| GpH7-A5/GpH7-B3 variant (E269_02A)/GpL16-k0 (antibody, human IgG1, kappa, IgG1 heterodimer, mutation in the GpH7-B3 chain only; also called He Ab) heavy 1: not shown heavy 2: not shown light: DIVMTQSPLSLPVTPGEPASISCQASESLVHSNRNTYLHWYLQKPGQSPQLLIYKVSNRFSGVPDRFSGSGSGTDFTLKISRVEAEDVGVYYCSQNTHVPPTFGQGTKVEIERTVAAPSVFIFPPSDEQLKSGTASVVCLLNNFYPREAKVQWKVDNALQSGNSQESVTEQDSKDSTYSLSSTLTLSKADYEKHKVYACEVTHQGLSSPVTKSFNRGEC | 49.9 relative, HeCon Ab = 100 | 104 relative, HeCon Ab = 100 |  |  |
| GpH7-A5/GpH7-B3 variant (E269_05P)/GpL16-k0 (antibody, human IgG1, kappa, IgG1 heterodimer, mutation in the GpH7-B3 chain only; also called He Ab) heavy 1: not shown heavy 2: not shown light: DIVMTQSPLSLPVTPGEPASISCQASESLVHSNRNTYLHWYLQKPGQSPQLLIYKVSNRFSGVPDRFSGSGSGTDFTLKISRVEAEDVGVYYCSQNTHVPPTFGQGTKVEIERTVAAPSVFIFPPSDEQLKSGTASVVCLLNNFYPREAKVQWKVDNALQSGNSQESVTEQDSKDSTYSLSSTLTLSKADYEKHKVYACEVTHQGLSSPVTKSFNRGEC | 52.6 relative, HeCon Ab = 100 | 102 relative, HeCon Ab = 100 |  |  |
| GpH7-A5/GpH7-B3 variant (E269_06M)/GpL16-k0 (antibody, human IgG1, kappa, IgG1 heterodimer, mutation in the GpH7-B3 chain only; also called He Ab) heavy 1: not shown heavy 2: not shown light: DIVMTQSPLSLPVTPGEPASISCQASESLVHSNRNTYLHWYLQKPGQSPQLLIYKVSNRFSGVPDRFSGSGSGTDFTLKISRVEAEDVGVYYCSQNTHVPPTFGQGTKVEIERTVAAPSVFIFPPSDEQLKSGTASVVCLLNNFYPREAKVQWKVDNALQSGNSQESVTEQDSKDSTYSLSSTLTLSKADYEKHKVYACEVTHQGLSSPVTKSFNRGEC | 46.7 relative, HeCon Ab = 100 | 104 relative, HeCon Ab = 100 |  |  |
| GpH7-A5/GpH7-B3 variant (E269_04F)/GpL16-k0 (antibody, human IgG1, kappa, IgG1 heterodimer, mutation in the GpH7-B3 chain only; also called He Ab) heavy 1: not shown heavy 2: not shown light: DIVMTQSPLSLPVTPGEPASISCQASESLVHSNRNTYLHWYLQKPGQSPQLLIYKVSNRFSGVPDRFSGSGSGTDFTLKISRVEAEDVGVYYCSQNTHVPPTFGQGTKVEIERTVAAPSVFIFPPSDEQLKSGTASVVCLLNNFYPREAKVQWKVDNALQSGNSQESVTEQDSKDSTYSLSSTLTLSKADYEKHKVYACEVTHQGLSSPVTKSFNRGEC | 45 relative, HeCon Ab = 100 | 103 relative, HeCon Ab = 100 |  |  |

Continued, values first:

| He/Con_2b (FcγRIIb [1]) | He/Con_1a (FcγRIa) | He/Con_2b (FcγRIIb [2]) | He/Con_2aH (FcγRIIa H) | Binder |
| --- | --- | --- | --- | --- |
| 42.9 relative, HeCon Ab = 100 | 104 relative, HeCon Ab = 100 |  |  | GpH7-A5/GpH7-B3 variant (E269_08L)/GpL16-k0 (antibody, human IgG1, kappa, IgG1 heterodimer, mutation in the GpH7-B3 chain only; also called He Ab) heavy 1: not shown heavy 2: not shown light: DIVMTQSPLSLPVTPGEPASISCQASESLVHSNRNTYLHWYLQKPGQSPQLLIYKVSNRFSGVPDRFSGSGSGTDFTLKISRVEAEDVGVYYCSQNTHVPPTFGQGTKVEIERTVAAPSVFIFPPSDEQLKSGTASVVCLLNNFYPREAKVQWKVDNALQSGNSQESVTEQDSKDSTYSLSSTLTLSKADYEKHKVYACEVTHQGLSSPVTKSFNRGEC |
|  |  | 111 % of control He Ab (=100) | 82.8 % of control He Ab (=100) | GpH7-A5/GpH7-B3 variant P331_20W/GpL16-k0 (antibody, human IgG1, kappa, heterodimerized IgG1, mutation in one H chain only; also called He Ab) heavy 1: not shown heavy 2: not shown light: DIVMTQSPLSLPVTPGEPASISCQASESLVHSNRNTYLHWYLQKPGQSPQLLIYKVSNRFSGVPDRFSGSGSGTDFTLKISRVEAEDVGVYYCSQNTHVPPTFGQGTKVEIERTVAAPSVFIFPPSDEQLKSGTASVVCLLNNFYPREAKVQWKVDNALQSGNSQESVTEQDSKDSTYSLSSTLTLSKADYEKHKVYACEVTHQGLSSPVTKSFNRGEC |
| 47.8 relative, HeCon Ab = 100 | 103 relative, HeCon Ab = 100 |  |  | GpH7-A5/GpH7-B3 variant (E269_13S)/GpL16-k0 (antibody, human IgG1, kappa, IgG1 heterodimer, mutation in the GpH7-B3 chain only; also called He Ab) heavy 1: not shown heavy 2: not shown light: DIVMTQSPLSLPVTPGEPASISCQASESLVHSNRNTYLHWYLQKPGQSPQLLIYKVSNRFSGVPDRFSGSGSGTDFTLKISRVEAEDVGVYYCSQNTHVPPTFGQGTKVEIERTVAAPSVFIFPPSDEQLKSGTASVVCLLNNFYPREAKVQWKVDNALQSGNSQESVTEQDSKDSTYSLSSTLTLSKADYEKHKVYACEVTHQGLSSPVTKSFNRGEC |
|  |  | 116 % of control He Ab (=100) | 84.5 % of control He Ab (=100) | GpH7-A5/GpH7-B3 variant P331_16H/GpL16-k0 (antibody, human IgG1, kappa, heterodimerized IgG1, mutation in one H chain only; also called He Ab) heavy 1: not shown heavy 2: not shown light: DIVMTQSPLSLPVTPGEPASISCQASESLVHSNRNTYLHWYLQKPGQSPQLLIYKVSNRFSGVPDRFSGSGSGTDFTLKISRVEAEDVGVYYCSQNTHVPPTFGQGTKVEIERTVAAPSVFIFPPSDEQLKSGTASVVCLLNNFYPREAKVQWKVDNALQSGNSQESVTEQDSKDSTYSLSSTLTLSKADYEKHKVYACEVTHQGLSSPVTKSFNRGEC |

Source: US20180155451A1 (published 2018)
